Series [1] concerns the target T1, PUM1 PUF domain (Homo sapiens, UniProt Q14671 828-1176). As to the kind of experiment: EMSA; 10 mM HEPES pH 7.3, 50 mM NaCl, 2 mM DTT, 0.05% Tween 20, 0.1 mg/mL BSA, 0.1 mg/mL tRNA; on ice; 10 nM RNA, 0-1 uM protein. The conditions noted are these: tags: GST cleaved (HRV3C); label: 32P.
Series [2] addresses Pumilio-1 PUF domain wild type (human, UniProt Q14671 828-1168). As to the kind of experiment: EMSA; 10 mM HEPES pH 7.3, 50 mM NaCl, 2 mM DTT, 0.05% Tween 20, 0.1 mg/ml BSA, 0.1 mg/ml yeast tRNA; ~10 nM RNA, 0-1 uM protein, 1 h on ice; 1.2% agarose gel, 1x TBE, room temperature. The conditions noted are these: protein: recombinant; tags: N-terminal GST (pGEX-6P-1) removed by HRV3C protease; label: 5' 32P. (A gel shift assay detects complexes by their altered migration in electrophoresis.)

In series [3] the target is PUM1 PUF domain R1-QFR R2-VFQ (Homo sapiens, UniProt Q14671 828-1176, S863Q;R864F;Q867R;N899V;Y900F). As to the kind of experiment: EMSA; 10 mM HEPES pH 7.3, 50 mM NaCl, 2 mM DTT, 0.05% Tween 20, 0.1 mg/mL BSA, 0.1 mg/mL tRNA; on ice; 10 nM RNA, 0-1 uM protein. The note with it: tags: GST cleaved (HRV3C); label: 32P.
Series [4] has as its target T2, PUM1 PUF domain R3-THE R4-TFR (Homo sapiens, UniProt Q14671 828-1176, C935T;R936H;Q939E;N971T;H972F;Q975R). Described as above. The conditions noted are these: tags: GST cleaved (HRV3C); label: 32P.
The target of series [5] is T1, PUM1 PUF domain. The series is described as above. The note with it: tags: GST cleaved (HRV3C); label: 32P. The source holds these as a separate data set.
In series [6] the target is T2, PUM1 PUF domain R3-THE R4-TFR. Kind of series: yeast three-hybrid, YBZ-1, SC-Leu-His + 0.5 mM 3-AT, 4 days. The conditions noted are these: tags: N-Gal4 AD-HA kept; label: inside an RPR1-promoter hybrid RNA with tandem MS2 sites. The procedure, abridged:
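A centromeric plasmid in strain YBZ-1 co-expressed Pumilio-1 PUF domain libraries, randomized at the three base-contacting residues of each repeat, with matching RNA elements; the strain carries a LexA–MS2 coat fusion and a HIS3 reporter. After four days on SC-Leu (input) or SC-Leu-His + 0.5 mM 3-AT (selection), the repeat regions were PCR-amplified and Illumina-sequenced. The interaction score is the log change in variant frequency from input to selection, using log2 and a pseudocount of 1 where absent.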

T1 sequence (Q14671 828-1176): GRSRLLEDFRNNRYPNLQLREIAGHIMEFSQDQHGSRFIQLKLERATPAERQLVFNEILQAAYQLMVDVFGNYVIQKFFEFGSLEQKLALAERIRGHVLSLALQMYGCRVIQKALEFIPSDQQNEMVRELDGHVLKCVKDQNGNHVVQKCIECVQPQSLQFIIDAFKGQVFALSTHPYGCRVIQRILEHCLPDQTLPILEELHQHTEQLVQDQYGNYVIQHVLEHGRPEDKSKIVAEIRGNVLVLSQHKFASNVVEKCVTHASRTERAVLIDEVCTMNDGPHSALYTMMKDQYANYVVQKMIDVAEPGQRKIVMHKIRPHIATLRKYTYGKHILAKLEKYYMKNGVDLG
Pumilio-1 PUF domain wild type, sequence (Q14671 828-1168): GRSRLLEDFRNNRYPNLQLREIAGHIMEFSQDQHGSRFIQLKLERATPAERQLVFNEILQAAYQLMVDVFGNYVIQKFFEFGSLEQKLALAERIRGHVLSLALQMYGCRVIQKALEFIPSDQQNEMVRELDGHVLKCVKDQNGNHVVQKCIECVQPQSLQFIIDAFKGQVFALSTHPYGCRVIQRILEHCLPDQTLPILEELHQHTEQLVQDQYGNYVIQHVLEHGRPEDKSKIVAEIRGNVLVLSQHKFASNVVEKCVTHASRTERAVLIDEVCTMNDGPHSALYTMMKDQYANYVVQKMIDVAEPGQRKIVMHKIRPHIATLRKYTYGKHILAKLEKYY
T2 sequence (Q14671 828-1176 C935T/R936H/Q939E/N971T/H972F/Q975R): as the sequence (Q14671 828-1176) above, with C108T, R109H, Q112E, N144T, H145F, Q148R counted along it
PUM1 PUF domain R1-QFR R2-VFQ, sequence (Q14671 828-1176 S863Q/R864F/Q867R/N899V/Y900F): as the sequence (Q14671 828-1176) above, with S36Q, R37F, Q40R, N72V, Y73F counted along it

For GGUAAGUGUAAAACGUCUGCAU (ssRNA) [UGUAAAAC], the qualitative with PUM1 PUF domain [1] is greater than 1000 nM. As a reminder, the Kd is the free concentration of one partner at which half of the binding sites on the other are occupied at equilibrium, for simple one-to-one binding. In the case of GGUAAGUGUAAAUAGUCUGCAU (ssRNA) [wild-type NRE RNA], the Kd in series [2] is roughly 80 nM. For the molecule GGUAAGUGUAAAUAGUCUGCAU (ssRNA) [UGUAAAUA], the qualitative in series [3] and in series [4] was greater than 1000 nM in each case. Besides, the equilibrium dissociation constant (Kd) with PUM1 PUF domain [5] is roughly 80 nM.

B1: UGUACGUA (ssRNA)
RNA: GGCUAGAACUAGUGGAUCCCCCGGCGCCCGGCGGCUCGAGCCCGGGUAAGUGUACGUAGUCUGCAUGCCGCCGGGCGCCAUGCCUGCAGGUCGACUCUAGAAAACAUG
Consider B1, for which the binding signal in series [6] was 6.65 log2 enrichment (interaction score). GGUAAGUGUAAAACGUCUGCAU (ssRNA) [QFR/VFQ target RNA]: the binding result in series [2] is listed as “no binding”. For GGUAAGUGUACGUAGUCUGCAU (ssRNA), in the series with PUM1 PUF domain [1], the qualitative was greater than 1000 nM.

For the origin of these results see paper PMC8384837, “Expanding the binding specificity for RNA recognition by a PUF domain”.
